Measurements taken from patent publication US20220387586A1 (Hoffmann-La Roche, published 2022).
Each block holds one binder with its values, some of them ahead of it.

Tests used:
[1] = target: T1, PD1 on PD1+LAG3+ human U2OS cells (UniProt Q15116 25-288); assay: cellular PD1/LAG3 dimerization assay, 7500 PD1+LAG3+ U2OS cells a well, 20 h at 37 °C, chemoluminescence; the signal needs PD1 and LAG3 bound at once
Procedure: Next, assay plates were equilibrated to room temperature and a substrate/buffer mix (PathHunterFlash detection reagent, Discoverx) was added and again incubated for 4h. For measuring chemoluminescence induced upon simultaneous binding and dimerization a SpectraMax L plate reader (Molecular Devices) was used.

[2] = target: T2, full-length human PD1 on cells (human, UniProt Q15116 25-288); assay: cell-based or functional assay
[3] = target: T3, LAG3 on cells (recombinant CHO cells expressing Lag3) (human, UniProt P18627 29-525); assay: cell-based or functional assay
T3 sequence: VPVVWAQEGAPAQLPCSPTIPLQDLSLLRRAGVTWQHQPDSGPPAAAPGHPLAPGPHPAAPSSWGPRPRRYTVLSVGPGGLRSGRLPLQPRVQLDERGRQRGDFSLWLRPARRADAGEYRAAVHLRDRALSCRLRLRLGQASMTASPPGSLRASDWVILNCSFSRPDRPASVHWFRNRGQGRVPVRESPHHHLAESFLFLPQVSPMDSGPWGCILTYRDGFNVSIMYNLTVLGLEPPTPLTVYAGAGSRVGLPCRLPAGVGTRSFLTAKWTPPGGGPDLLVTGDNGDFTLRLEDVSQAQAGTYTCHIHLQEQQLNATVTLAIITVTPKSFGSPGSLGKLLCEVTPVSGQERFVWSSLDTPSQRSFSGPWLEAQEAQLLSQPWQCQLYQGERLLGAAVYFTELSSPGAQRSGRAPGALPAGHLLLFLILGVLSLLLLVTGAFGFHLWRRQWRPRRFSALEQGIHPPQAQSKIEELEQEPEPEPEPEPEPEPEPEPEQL

[4] = target: T3, LAG3 on cells (recombinant CHO cells …); assay: cell ELISA on recombinant CHO cells expressing Lag3 (rel. EC50)
Procedure: After washing (1×90 μl in PBST) cells were fixed by addition of 30 μl/well glutaraldehyde to a final concentration of 0.05% (Sigma Cat.No: G5882), 10 min at room temperature. After washing (3×90 μl/well with PBST-buffer) 25 μl/well goat anti-Human Ig κ chain antibody-HRP conjugate (Milipore, AP502P) was added in a 1:1000 dilution and incubated at RT for 1 h. After washing (3×90 μl/well with PBST-buffer) 25 μl/well TMB substrate (Roche, 11835033001) was added and incubated for 6-10 min. Measurement took place on a Tecan Safire 2 instrument at 370/492 nm.

[5] = target: T2, full-length human PD1 on cells; assay: cell ELISA on CHO-K1 cells expressing full-length human PD1 (rel. EC50)
Procedure: (to avoid internalization). After washing carefully (1×90 μl/well PBST) cells were fixed by adding 30 μl/well 0.05% Glutaraldehyde (Sigma, Cat.No: G5882, 25%) diluted in 1×PBS-buffer and incubated for 10 min at RT. After washing (3×90 μl/well PBST) 25 μl/well secondary antibody was added for detection: goat-anti-human H+L-POD (JIR, JIR109-036-088)/Sheep-anti-mouse-POD (GE NA9310) followed by 1 h incubation at RT on shaker. After washing (3×90 μl/well PBST) 25 μl/well TMB substrate solution (Roche 11835033001) was added and incubated until OD 1.0-2.0. Plates were measured at 370/492 nm.

[6] = target: T4, biotinylated-Lag3 (UniProt P18627 23-450, limits assumed, biotinylated); assay: ELISA, inhibition of biotinylated-Lag3 binding to MHC-II on A375 cells (competitor MHC-II)
T4 construct: Probably a human LAG3 ECD construct; also called Lag3 (MHCII/ELISA)
T4 sequence (looked up): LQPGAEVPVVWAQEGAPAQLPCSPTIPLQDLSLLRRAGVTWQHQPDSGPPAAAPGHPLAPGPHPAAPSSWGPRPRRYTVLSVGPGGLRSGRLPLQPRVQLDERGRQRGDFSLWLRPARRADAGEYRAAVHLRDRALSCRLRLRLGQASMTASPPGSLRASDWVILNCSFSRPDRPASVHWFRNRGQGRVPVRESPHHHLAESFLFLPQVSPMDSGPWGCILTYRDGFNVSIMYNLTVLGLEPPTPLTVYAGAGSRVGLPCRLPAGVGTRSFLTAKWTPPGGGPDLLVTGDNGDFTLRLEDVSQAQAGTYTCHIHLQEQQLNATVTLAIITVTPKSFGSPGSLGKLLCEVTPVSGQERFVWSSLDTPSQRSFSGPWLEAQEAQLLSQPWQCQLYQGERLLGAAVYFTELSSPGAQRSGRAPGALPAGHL
Procedure: 25 μl/well of A375 cells (10000 cells/well) were seeded into tissue culture treated 384-well plates (Corning, 3701) and incubated at 37° C. overnight. […] After washing (1×90 μl in PBST) cells were fixed by addition of 30 μl/well glutaraldehyde to a final concentration of 0.05% (Sigma Cat.No: G5882), 10 min at room temperature. After washing (3×90 μl/well with PBST-buffer) 25 μl/well Poly-HRP40-Streptavidin (Fitzgerald, 65R-S104PHRPx) was added in a 1:2000 or 1:8000 dilution and incubated at RT for 1 h. After washing (3×90 μl/well with PBST-buffer) 25 μl/well TMB substrate (Roche, 11835033001) was added and incubated for 2 to 10 min. Measurement took place on a Tecan Safire 2 instrument at 370/492 nm.

[7] = target: T5, LAG3 on PD1+LAG3+ human U2OS cells (Homo sapiens (Human), UniProt P18627 23-525); assay: cellular PD1/LAG3 dimerization assay on PD1+LAG3+ U2OS cells, chemoluminescence; the signal needs PD1 and LAG3 bound at once
T5 construct: also called cellular LAG3 (dimerization assay); not shown: subunit of the reporter enzyme fused to the cytosolic C-terminus
T5 sequence: T3 sequence
Procedure: (§1) For this specific interaction, the cytosolic C-terminal ends of both receptors were individually fused to heterologous subunits of a reporter enzyme.
(§2) On the next day cell medium was discarded and replaced by fresh medium. Antibody or ligand dilutions were prepared and titrated amounts of indicated (bispecific) antibodies were added and incubated at 37° C. for 2 hours. Next, a substrate/buffer mix (e.g. PathHunterFlash detection reagent) was added and again incubated for 1h. For measuring chemoluminescence induced upon simultaneous binding and dimerization a Tecan infinite reader was used.

[8] = target: T1, PD1 on PD1+LAG3+ human U2OS cells; assay: as above
Procedure: as §1, §2

[9] = target: T6, biotinylated PD1-ECD-AviHis (human, UniProt Q15116 25-170, biotinylated); assay: ELISA on coated biotinylated PD1-ECD-AviHis (rel. EC50)
T6 construct: also called huPD1; hu PD1; not shown: Avi-His tag
Procedure: After washing (3×90 μl/well with PBST-buffer) 25 μl/well goat-anti-human H+L-POD (JIR, JIR109-036-098) was added in 1:5000 dilution and incubated at RT for 1 h on a shaker. After washing (3×90 μl/well with PBST-buffer) 25 μl/well of TMB substrate (Roche, 11835033001) was added and incubated until OD 2-3. Measurement took place at 370/492 nm.

[10] = target: T7, recombinant Human LAG-3 Fc Chimera Protein (R&D Systems, 2319-L3) (human, UniProt P18627 29-450); assay: ELISA on coated Human LAG-3 Fc Chimera (rel. EC50)
T7 construct: Bought protein; also called huLAG3; not shown: Fc part of the chimera
T7 sequence: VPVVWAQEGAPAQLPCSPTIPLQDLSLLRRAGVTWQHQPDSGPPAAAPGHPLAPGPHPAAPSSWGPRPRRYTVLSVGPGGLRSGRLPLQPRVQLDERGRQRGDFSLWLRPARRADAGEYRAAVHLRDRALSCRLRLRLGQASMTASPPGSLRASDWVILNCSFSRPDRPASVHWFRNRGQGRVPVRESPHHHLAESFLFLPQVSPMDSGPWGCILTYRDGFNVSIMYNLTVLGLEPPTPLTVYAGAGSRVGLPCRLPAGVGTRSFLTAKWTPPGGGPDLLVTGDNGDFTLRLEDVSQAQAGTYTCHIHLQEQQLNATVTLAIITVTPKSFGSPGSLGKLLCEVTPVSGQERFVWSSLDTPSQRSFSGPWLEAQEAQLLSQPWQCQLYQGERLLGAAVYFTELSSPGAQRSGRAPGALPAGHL
Procedure: After washing (3×90 μl/well with PBST-buffer) each well was incubated with 90 μl blocking buffer (PBS+2% BSA+0.05% Tween 20) for 1 h at room temperature. […] After washing (3×90 μl/well with PBST-buffer) 25 μl/well goat anti-Human Ig κ chain antibody-HRP conjugate (Milipore, AP502P) was added in a 1:2000 dilution and incubated at RT for 1 h. After washing (3×90 μl/well with PBST-buffer) 25 μl/well TMB substrate (Roche, 11835033001) was added and incubated for 2-10 min. Measurement took place on a Tecan Safire 2 instrument at 370/492 nm.

T1 sequence (Q15116 25-288): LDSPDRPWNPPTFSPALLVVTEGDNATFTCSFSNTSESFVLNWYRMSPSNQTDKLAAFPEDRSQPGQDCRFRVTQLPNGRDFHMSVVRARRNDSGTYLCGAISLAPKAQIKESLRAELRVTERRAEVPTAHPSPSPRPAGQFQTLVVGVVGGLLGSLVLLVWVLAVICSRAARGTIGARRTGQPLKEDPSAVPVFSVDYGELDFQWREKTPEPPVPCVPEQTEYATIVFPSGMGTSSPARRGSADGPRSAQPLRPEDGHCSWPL
T2 sequence (Q15116 25-288 limits assumed): as the sequence (Q15116 25-288) above
T6 sequence (Q15116 25-170): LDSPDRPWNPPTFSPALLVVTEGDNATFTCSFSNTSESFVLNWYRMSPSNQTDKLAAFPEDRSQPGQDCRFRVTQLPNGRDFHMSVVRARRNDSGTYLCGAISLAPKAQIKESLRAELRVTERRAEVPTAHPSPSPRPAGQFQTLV

EC50 (read off the curve) [1]: ~60 pM
EC50 [nM], PD-1 & LAG-3 combo reporter assay (NFAT luciferase) [2]: 2.2 nM
EC50 [nM], PD-1 & LAG-3 combo reporter assay (NFAT luciferase) [3]: 2.2 nM
B1: PD1/LAG3 0725 (bispecific antibody, human IgG1, kappa, L234A L235A)
heavy 1: not shown
heavy 2: DKTHTCPPCPAPEAAGGPSVFLFPPKPKDTLMISRTPEVTCVVVDVSHEDPEVKFNWYVDGVEVHNAKTKPREEQYNSTYRVVSVLTVLHQDWLNGKEYKCKVSNKALGAPIEKTISKAKGQPREPQVCTLPPSRDELTKNQVSLSCAVKGFYPSDIAVEWESNGQPENNYKTTPPVLDSDGSFFLVSKLTVDKSRWQQGNVFSCSVMHEALHNHYTQKSLSLSPGKGGGGSGGGGSEVQLLESGGGLVQPGGSLRLSCAASGFIFDDYTMNWVRQAPGKGLEWVAVISWDGGGTYYTDSVKGRFTISRDDFKNTLYLQMNSLRAEDTAVYYCAKGLTDTTLYGSDYWGQGTLVTVSSASTKGPSVFPLAPSSKSTSGGTAALGCLVEDYFPEPVTVSWNSGALTSGVHTFPAVLQSSGLYSLSSVVTVPSSSLGTQTYICNVNHKPSNTKVDEKVEPKSC
light 1: EVQLLESGGGLVQPGGSLRLSCAASGFSFSSYTMSWVRQAPGKGLEWVATISGGGRDIYYPDSVKGRFTISRDNSKNTLYLQMNSLRAEDTAVYYCVLLTGRVYFALDSWGQGTLVTVSSASVAAPSVFIFPPSDEQLKSGTASVVCLLNNFYPREAKVQWKVDNALQSGNSQESVTEQDSKDSTYSLSSTLTLSKADYEKHKVYACEVTHQGLSSPVTKSFNRGEC
light 2: not shown
notes: 1+1 trans format: LAG3 Fab fused to the C-terminus of the Fc hole chain

EC50 [4]: 640 pM
EC50 [5]: 310 pM
IC50 [6]: 470 pM
EC50 (read off the curve) [7]: ~0.06 µg/mL
EC50 (read off the curve) [8]: ~0.06 µg/mL
EC50 [9]: 30 pM
EC50 [10]: 20 pM
B2: PD1/LAG3 1252 (bispecific antibody, human IgG1, kappa, L234A L235A)
heavy 1: not shown
heavy 2: QVQLQQWGAGLLKPSETLSLTCAVYGGSFSDYYWNWIRQPPGKGLEWIGEINHNGNTNSNPSLKSRVTLSLDTSKNQFSLKLRSVTAADTAVYYCAFGYSDYEYNWFDPWGQGTLVTVSSASTKGPSVFPLAPSSKSTSGGTAALGCLVEDYFPEPVTVSWNSGALTSGVHTFPAVLQSSGLYSLSSVVTVPSSSLGTQTYICNVNHKPSNTKVDEKVEPKSCDKTHTCPPCPAPEAAGGPSVFLFPPKPKDTLMISRTPEVTCVVVDVSHEDPEVKFNWYVDGVEVHNAKTKPREEQYNSTYRVVSVLTVLHQDWLNGKEYKCKVSNKALGAPIEKTISKAKGQPREPQVCTLPPSRDELTKNQVSLSCAVKGFYPSDIAVEWESNGQPENNYKTTPPVLDSDGSFFLVSKLTVDKSRWQQGNVFSCSVMHEALHNHYTQKSLSLSPGK
light 1: DIVMTQSPDSLAVSLGERATINCKASESVDTSDNSFIHWYQQKPGQSPKLLIYRSSTLESGVPDRFSGSGSGTDFTLTISSLQAEDVAVYYCQQNYDVPWTFGQGTKVEIKSSASTKGPSVFPLAPSSKSTSGGTAALGCLVKDYFPEPVTVSWNSGALTSGVHTFPAVLQSSGLYSLSSVVTVPSSSLGTQTYICNVNHKPSNTKVDKKVEPKSC
light 2: not shown
notes: 2+1 format: two LAG3 Fabs, one PD1 crossFab fused to the C-terminus of the Fc knob heavy chain
